The results in this text go back to patent publication US20250051476A1 (ABDERA THERAPEUTICS, published 2025).

Where a chain is given by its changes, count along the chain named.

One may read the EC50 (read off the curve) as the concentration giving half of the maximal effect. Read a high EC50 (read off the curve) as lower potency in that assay.

For one experiment, the target named is T1, human DLL3 (human, UniProt Q9NYJ7 27-492, limits assumed).
T1 construct: also called hDLL3; Delta-like protein 3
T1 sequence (looked up): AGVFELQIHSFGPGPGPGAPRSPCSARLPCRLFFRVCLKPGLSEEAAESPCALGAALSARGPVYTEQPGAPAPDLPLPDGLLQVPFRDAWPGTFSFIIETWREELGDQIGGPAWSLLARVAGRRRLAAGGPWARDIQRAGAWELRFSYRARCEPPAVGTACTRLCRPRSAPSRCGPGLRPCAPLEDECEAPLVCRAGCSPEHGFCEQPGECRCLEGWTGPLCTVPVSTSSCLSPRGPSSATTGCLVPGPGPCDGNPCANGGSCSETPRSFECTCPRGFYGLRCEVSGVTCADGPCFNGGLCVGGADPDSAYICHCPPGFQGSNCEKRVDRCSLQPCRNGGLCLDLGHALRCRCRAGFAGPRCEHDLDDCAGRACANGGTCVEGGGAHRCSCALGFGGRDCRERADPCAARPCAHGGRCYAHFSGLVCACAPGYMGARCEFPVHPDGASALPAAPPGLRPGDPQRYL
In words: ELISA.

The target of another experiment is T2, mouse DLL3 (mouse, UniProt O88516 25-477, limits assumed).
T2 construct: also called mDLL3; murine DLL3
T2 sequence (looked up): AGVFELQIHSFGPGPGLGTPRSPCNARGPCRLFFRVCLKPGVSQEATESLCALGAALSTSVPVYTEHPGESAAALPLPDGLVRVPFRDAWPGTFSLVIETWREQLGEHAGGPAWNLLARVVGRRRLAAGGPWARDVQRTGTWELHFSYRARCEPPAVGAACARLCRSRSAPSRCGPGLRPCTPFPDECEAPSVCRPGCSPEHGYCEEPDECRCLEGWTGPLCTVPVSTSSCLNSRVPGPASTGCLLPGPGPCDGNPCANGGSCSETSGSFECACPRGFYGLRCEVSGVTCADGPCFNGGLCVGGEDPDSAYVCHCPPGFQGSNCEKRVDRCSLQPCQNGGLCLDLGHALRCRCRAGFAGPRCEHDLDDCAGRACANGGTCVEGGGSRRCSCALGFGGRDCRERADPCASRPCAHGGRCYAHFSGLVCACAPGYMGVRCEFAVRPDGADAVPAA
In words: ELISA. Background: An ELISA detects its analyte on a solid surface through an enzyme-linked reagent.

The target in experiment [1] is T3, DLL3 on cells (SHP-77, NCI-H82, HEK-DLL3, membrane proteome array cells) (human, UniProt Q9NYJ7 27-618).
T3 construct: whole, on cells; also called hDLL3
T3 sequence (looked up): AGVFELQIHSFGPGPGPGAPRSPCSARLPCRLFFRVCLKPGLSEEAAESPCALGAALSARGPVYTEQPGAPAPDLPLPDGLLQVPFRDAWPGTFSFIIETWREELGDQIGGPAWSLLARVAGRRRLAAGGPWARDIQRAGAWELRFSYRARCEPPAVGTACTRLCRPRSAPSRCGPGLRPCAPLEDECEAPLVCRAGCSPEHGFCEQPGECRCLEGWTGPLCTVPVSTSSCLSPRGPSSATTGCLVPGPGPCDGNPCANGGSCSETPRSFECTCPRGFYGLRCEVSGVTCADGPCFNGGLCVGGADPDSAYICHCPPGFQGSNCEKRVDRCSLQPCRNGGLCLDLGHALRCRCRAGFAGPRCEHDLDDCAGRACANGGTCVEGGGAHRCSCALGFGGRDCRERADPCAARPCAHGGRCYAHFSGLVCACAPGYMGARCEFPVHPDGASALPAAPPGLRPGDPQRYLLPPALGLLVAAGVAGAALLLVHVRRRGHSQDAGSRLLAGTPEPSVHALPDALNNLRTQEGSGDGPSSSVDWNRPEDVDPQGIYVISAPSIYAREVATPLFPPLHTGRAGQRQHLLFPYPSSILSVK
Put plainly: flow cytometry on SHP-77 cells, Geomeans RL1-H. In general terms: Flow cytometry measures light scatter and fluorescence of single cells or particles in a stream.

B1: 24_zu4 (Fc fusion)
chain: QVQLVESGGGLVQPGGSLRLSCAASGFTFSSYRINWYRQAPGQGRELVASITDTGSTNYADSVKGRFTISRDNSKNTLYLQMNSLRAEDTAVYYCAAPTIAAYWGQGTLVTVSSEPKSSDKTHTCPPCPAPEAEGAPSVFLFPPKPKDTLMISRTPEVTCVVVDVSHEDPEVKFNWYVDGVEVHNAKTKPREEQYNSTYRVVSVLTVLHQDWLNGKEYKCKVSNKALPSSIEKTISKAKGQPREPQVYTLPPSREEMTKNQVSLTCLVKGFYPSDIAVEWESNGQPENNYKTTPPVLDSDGSFFLYSKLTVDKSRWQQGNVFSCSVMHEALHNQYTQKSLSLSPG
notes: Humanized VHH-Fc
In the case of B1, the binding result with human DLL3 and with mouse DLL3 was “no binding” each time.

B2: 24_zu1 (Fc fusion)
chain: B1 chain with Y37F, R45L, L47A
notes: Humanized VHH-Fc
Take B2: in the experiment with human DLL3, the binding result is reported as “binds”.

B3: 24_zu3 (Fc fusion)
chain: B1 chain with R45L
notes: Humanized VHH-Fc
Turning to B3, the binding result with human DLL3 and with mouse DLL3 was “no binding” in each case.

B4: 24_zu5 (Fc fusion)
chain: B1 chain with A40P, Q43K, A49G
notes: Humanized VHH-Fc
Take B4: the binding result with human DLL3 and with mouse DLL3 was “no binding” each time.

B5: 24_zu2 (Fc fusion)
chain: B1 chain with Y37F, R45L
notes: Humanized VHH-Fc
On to B5, for which the binding result with human DLL3 and with mouse DLL3 was “no binding” throughout.

B6: 100_zu4 (Fc fusion)
chain: QVQLVESGGGLVQPGGSLRLSCAASGIVFNSDVMGWYRQAPGQPRELVATITGGGSTNYATSVKGRFTISRDNSKNTLYLQMNSLRAEDTAVYYCAARRGDSMLAFWGQGTLVTVSSEPKSSDKTHTCPPCPAPEAEGAPSVFLFPPKPKDTLMISRTPEVTCVVVDVSHEDPEVKFNWYVDGVEVHNAKTKPREEQYNSTYRVVSVLTVLHQDWLNGKEYKCKVSNKALPSSIEKTISKAKGQPREPQVYTLPPSREEMTKNQVSLTCLVKGFYPSDIAVEWESNGQPENNYKTTPPVLDSDGSFFLYSKLTVDKSRWQQGNVFSCSVMHEALHNQYTQKSLSLSPG
notes: Humanized VHH-Fc
As for B6, the binding result with human DLL3 and with mouse DLL3 was “no binding” in each case.

B7: 100_zu3 (Fc fusion)
chain: B6 chain with P44G, R45L
notes: Humanized VHH-Fc
In the case of B7, the binding result with human DLL3 and with mouse DLL3 was “no binding” throughout.

B8: 100_zu2 (Fc fusion)
chain: B6 chain with Y37F, P44G, R45L
notes: Humanized VHH-Fc
Consider B8, for which the binding result in the experiment with human DLL3 and with mouse DLL3 was “no binding” each time.

B9: 100_zu5 (Fc fusion)
chain: B6 chain with A40V, Q43K
notes: Humanized VHH-Fc
As to B9, the binding result in the experiment with human DLL3 and with mouse DLL3 was “no binding” in each case.

B10: 186_zu3 (Fc fusion)
chain: QVQLVESGGGLVQPGGSLRLSCAASGFDFSTYTVNWYRQAPGQGLEKVARISSTGTTTNYANSAKGRFTISRDNSKNTLYLQMNSLRAEDTAVYYCAAERFDSNYWGQGTLVTVSSEPKSSDKTHTCPPCPAPEAEGAPSVFLFPPKPKDTLMISRTPEVTCVVVDVSHEDPEVKFNWYVDGVEVHNAKTKPREEQYNSTYRVVSVLTVLHQDWLNGKEYKCKVSNKALPSSIEKTISKAKGQPREPQVYTLPPSREEMTKNQVSLTCLVKGFYPSDIAVEWESNGQPENNYKTTPPVLDSDGSFFLYSKLTVDKSRWQQGNVFSCSVMHEALHNQYTQKSLSLSPG
notes: Humanized VHH-Fc
As for B10, the binding result is given as “binds” in the experiment with human DLL3 and “no binding” with mouse DLL3.

B11: 186_zu4 (Fc fusion)
chain: B10 chain with G44E, L45R
notes: Humanized VHH-Fc
On to B11, for which the binding result with human DLL3 is listed as “binds”; with mouse DLL3, “no binding”.

B12: 186_zu5 (Fc fusion)
chain: B10 chain with Q43K, G44E, L45R
notes: Humanized VHH-Fc
B12: the binding result is recorded as “binds” in the experiment with human DLL3 and “no binding” with mouse DLL3.

B13: 107_zu4 (Fc fusion)
chain: QVQLVESGGGLVQPGGSLRLSCAASDRTFSSYAVGWFRQAPGQEREFVAAISWNGGRTLYTDSVTGRFTISRDNSKNTLYLQMNSLRAEDTAVYYCAARPAAPTRRLEYDYWGQGTLVTVSSEPKSSDKTHTCPPCPAPEAEGAPSVFLFPPKPKDTLMISRTPEVTCVVVDVSHEDPEVKFNWYVDGVEVHNAKTKPREEQYNSTYRVVSVLTVLHQDWLNGKEYKCKVSNKALPSSIEKTISKAKGQPREPQVYTLPPSREEMTKNQVSLTCLVKGFYPSDIAVEWESNGQPENNYKTTPPVLDSDGSFFLYSKLTVDKSRWQQGNVFSCSVMHEALHNQYTQKSLSLSPG
notes: Humanized VHH-Fc
As for B13, the binding result (in the experiment with human DLL3; in experiment [1]) was “binds” each time.

B14: 107_zu3 (Fc fusion)
chain: B13 chain with E44G
notes: Humanized VHH-Fc
On to B14, for which the binding result (with human DLL3; in experiment [1]) was “binds” each time.

B15: 107_zu5 (Fc fusion)
chain: B13 chain with Q43K
notes: Humanized VHH-Fc
Consider B15, for which the binding result (with human DLL3; in experiment [1]) was “binds” throughout.

B16: 107_zu1 (Fc fusion)
chain: B13 chain with E44G, R45L, F47A
notes: Humanized VHH-Fc
Consider B16, for which, in the experiment with human DLL3, the binding result is “binds”.

B17: 126_zu4 (Fc fusion)
chain: QVQLVESGGGLVQPGGSLRLSCAASGITFSMYSMSWYRQAPGQQRELVAATTTFGSTNYADSVKGRFTISRDNSKNTLYLQMNSLRAEDTAVYYCAARFTSEEYWGQGTLVTVSSEPKSSDKTHTCPPCPAPEAEGAPSVFLFPPKPKDTLMISRTPEVTCVVVDVSHEDPEVKFNWYVDGVEVHNAKTKPREEQYNSTYRVVSVLTVLHQDWLNGKEYKCKVSNKALPSSIEKTISKAKGQPREPQVYTLPPSREEMTKNQVSLTCLVKGFYPSDIAVEWESNGQPENNYKTTPPVLDSDGSFFLYSKLTVDKSRWQQGNVFSCSVMHEALHNQYTQKSLSLSPG
notes: Humanized VHH-Fc
In the case of B17, in the experiment with mouse DLL3, the binding result is on record as “no binding”. In addition, in experiment [1], the concentration giving a half-maximal response (EC50 (read off the curve)) was roughly 0.1 nM.

B18: 126_zu5 (Fc fusion)
chain: B17 chain with A40P, Q43K
notes: Humanized VHH-Fc
Take B18: the binding result with mouse DLL3 is on record as “no binding”. Further, the “EC50 (read off the curve)” value in experiment [1] was roughly 0.1 nM.

B19: 126_zu3 (Fc fusion)
chain: B17 chain with Q44G, R45L
notes: Humanized VHH-Fc
Take B19: in the experiment with mouse DLL3, the binding result is “no binding”. In addition, the “EC50 (read off the curve)” value in experiment [1] was roughly 0.1 nM.
